Results from patent US20020111475A1.

Target: flt3 on murine WWF7 cells
Experiment: cell-based or functional assay

Substance	Sp.Ac. MUT / Sp.Ac. WT (WWF7 cell proliferation units/ml per flt3-L ng/ml by ELISA, yeast supernatant) (ratio to wild type)	specific activity of WT protein (WWF7 cell proliferation, yeast supernatant), averaged over 11 independent assays [units/ng]
flt3-L mutant H8Y (from UniProt P49771 24-179) (ligand)	1.71	
flt3-L mutant K84E (from UniProt P49771 24-179) (ligand)	2.88	
flt3-L mutant K84T (from UniProt P49771 24-235) (ligand)	1.63	
flt3-L mutant L27P (from UniProt P49771 24-179) (ligand)	0.07	
flt3-L mutant K116E (from UniProt P49771 24-179) (ligand)	0.02	
flt3-L mutant F81S (from UniProt P49771 24-179) (ligand)	0	
wild type flt3-L (yeast-derived recombinant human flt3 Ligand) (from UniProt P49771 24-179)	1	0.95
flt3-L mutant H8R (from UniProt P49771 24-179) (ligand)	0	
flt3-L mutant I11Y (from UniProt P49771 24-179) (ligand)	0	
flt3-L mutant Q122R (from UniProt P49771 24-179) (ligand)	2.16	
flt3-L mutant L26F (from UniProt P49771 24-235) (ligand)	0.69	
flt3-L mutant W118R (from UniProt P49771 24-179) (ligand)	2.19	
flt3-L mutant V34L (from UniProt P49771 24-235) (ligand)	0.58	
